# Experimental data: patent US20220402979A1
# Assays:
# [1] = molecular target: recombinant human mis-disordered tau protein (tau151-391/4R) (human) (UniProt P10636); test: reference line in the plot 'Affinity against pathological tau', axis KD (nM); SPR (Example 10)
# [2] = molecular target: Human Tau2N4R; test: SPR; literature table, Jadhav et al. 2019; AFFINITY 'nd.'
# Chain of Human Tau2N4R (single chain, as listed by the source limits assumed): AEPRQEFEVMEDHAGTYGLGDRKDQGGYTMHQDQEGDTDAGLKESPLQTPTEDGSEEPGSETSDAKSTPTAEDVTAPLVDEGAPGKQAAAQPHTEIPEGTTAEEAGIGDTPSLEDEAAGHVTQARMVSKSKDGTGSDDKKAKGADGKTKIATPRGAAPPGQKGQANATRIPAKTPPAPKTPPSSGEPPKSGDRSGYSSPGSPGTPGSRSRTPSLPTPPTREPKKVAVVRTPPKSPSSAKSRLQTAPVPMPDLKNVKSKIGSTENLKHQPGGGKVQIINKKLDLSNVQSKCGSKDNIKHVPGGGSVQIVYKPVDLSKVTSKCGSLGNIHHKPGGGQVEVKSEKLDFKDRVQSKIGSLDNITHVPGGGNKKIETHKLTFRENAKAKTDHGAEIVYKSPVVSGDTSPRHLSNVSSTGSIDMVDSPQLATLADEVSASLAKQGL
# Chain of recombinant human mis-disordered tau protein (tau151-391/4R) (human) (P10636 468-708): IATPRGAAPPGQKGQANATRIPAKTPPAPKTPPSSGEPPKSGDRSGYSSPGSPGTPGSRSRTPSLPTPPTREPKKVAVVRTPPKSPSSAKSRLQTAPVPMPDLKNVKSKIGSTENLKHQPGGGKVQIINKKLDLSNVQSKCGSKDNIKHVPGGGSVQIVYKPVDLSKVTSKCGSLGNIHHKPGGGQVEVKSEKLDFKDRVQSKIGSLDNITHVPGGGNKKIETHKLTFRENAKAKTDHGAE
Kd [1] [nM],AVIDITY [2] [pM],Substance
0.4,–,AADvac2
–,0.4,HJ8.5 (antibody)
–,100,HJ9.3 (antibody)
–,7000,HJ9.4 (antibody)
